Reference: patent CN112063765A

Columns and labels:
[1] = target: H1N1特异性的表位肽 (SEQ ID NO:4) (Influenza A virus H1N1)
[2] = target: H1N1特异性的表位肽 (SEQ ID NO:4) (Influenza A virus H1N1); experiment: indirect ELISA, titre of purified ascites antibody

B1: 3E6单克隆抗体 (antibody, V domains shown)
VH: EVQLEESGTELARPGASVKLALKASGYIFSSYSGQWIKQRPGAGLELIGYPYPGWIDTRYTQKLTGKATLTADKSSSTLYMQLSSLASEDSAVAYCAGSYFSSDAWGLGTTLAVSS
VL: DIVLTQSPALMAASAGEKVTITCAVSQSIQSGYLAWYQQKSGISPKPWIYDTSNQAGGVPARFSGAGSGTSYSLTITSMEAEDAATYYCAQGTTSPLSFGAGTKLELK
Kd [1]: 0.48 nM | OD492 at dilution 1:1000 [2]: 4.91 OD492 | OD492 at dilution 1:10000 [2]: 1.89 OD492 | OD492 at dilution 1:100000 [2]: 0.455 OD492 | OD492 at dilution 1:1000000 [2]: 0.121 OD492 | OD492 at dilution 1:10000000 [2]: 0.0632 OD492
